From patent publication US20190077860A1 (EISAI R AND D MANAGEMENT, published 2019)
Changes are numbered by the printed parent chain.

T1: human EphA10 extracellular region-SEAP-His protein (human, UniProt Q5JZY3 34-565)
T1 construct: extracellular domain; also called hEphA10-SEAP-His
T1 sequence (looked up): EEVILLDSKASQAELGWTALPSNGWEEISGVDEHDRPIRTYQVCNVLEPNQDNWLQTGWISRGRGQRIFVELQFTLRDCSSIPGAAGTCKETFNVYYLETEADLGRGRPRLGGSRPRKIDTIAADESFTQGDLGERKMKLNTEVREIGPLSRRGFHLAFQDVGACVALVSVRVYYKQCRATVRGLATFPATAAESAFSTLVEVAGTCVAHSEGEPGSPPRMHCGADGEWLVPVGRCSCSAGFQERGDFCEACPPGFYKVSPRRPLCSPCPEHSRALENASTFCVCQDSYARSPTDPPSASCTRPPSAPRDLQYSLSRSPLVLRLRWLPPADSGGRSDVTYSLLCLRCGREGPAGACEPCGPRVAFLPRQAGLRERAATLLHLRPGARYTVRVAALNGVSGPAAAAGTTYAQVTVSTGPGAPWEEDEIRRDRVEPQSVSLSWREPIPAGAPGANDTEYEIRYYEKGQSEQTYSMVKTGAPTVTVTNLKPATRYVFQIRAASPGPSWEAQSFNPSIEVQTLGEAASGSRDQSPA

T2: human EphB2 extracellular region-SEAP-His protein (human, UniProt P29323 19-543)
T2 construct: extracellular domain; also called hEphB2-SEAP-His
T2 sequence (looked up): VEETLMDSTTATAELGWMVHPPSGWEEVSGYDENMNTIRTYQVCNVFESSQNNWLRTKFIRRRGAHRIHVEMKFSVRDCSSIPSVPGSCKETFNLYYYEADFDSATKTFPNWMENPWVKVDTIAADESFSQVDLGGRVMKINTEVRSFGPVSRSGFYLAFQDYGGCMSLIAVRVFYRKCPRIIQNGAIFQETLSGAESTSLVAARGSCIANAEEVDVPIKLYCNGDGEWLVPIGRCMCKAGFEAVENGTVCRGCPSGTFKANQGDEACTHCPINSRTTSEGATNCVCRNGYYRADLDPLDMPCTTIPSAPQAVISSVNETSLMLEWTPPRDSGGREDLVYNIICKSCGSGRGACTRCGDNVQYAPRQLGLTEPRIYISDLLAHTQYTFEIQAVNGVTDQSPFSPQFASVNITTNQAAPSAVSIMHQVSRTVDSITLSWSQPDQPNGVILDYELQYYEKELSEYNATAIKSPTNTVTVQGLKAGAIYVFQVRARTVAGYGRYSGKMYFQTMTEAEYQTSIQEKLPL

T3: human EphA6 extracellular region-SEAP-His protein (human, UniProt Q9UF33 23-550)
T3 construct: extracellular domain; also called hEphA6-SEAP-His
T3 sequence (looked up): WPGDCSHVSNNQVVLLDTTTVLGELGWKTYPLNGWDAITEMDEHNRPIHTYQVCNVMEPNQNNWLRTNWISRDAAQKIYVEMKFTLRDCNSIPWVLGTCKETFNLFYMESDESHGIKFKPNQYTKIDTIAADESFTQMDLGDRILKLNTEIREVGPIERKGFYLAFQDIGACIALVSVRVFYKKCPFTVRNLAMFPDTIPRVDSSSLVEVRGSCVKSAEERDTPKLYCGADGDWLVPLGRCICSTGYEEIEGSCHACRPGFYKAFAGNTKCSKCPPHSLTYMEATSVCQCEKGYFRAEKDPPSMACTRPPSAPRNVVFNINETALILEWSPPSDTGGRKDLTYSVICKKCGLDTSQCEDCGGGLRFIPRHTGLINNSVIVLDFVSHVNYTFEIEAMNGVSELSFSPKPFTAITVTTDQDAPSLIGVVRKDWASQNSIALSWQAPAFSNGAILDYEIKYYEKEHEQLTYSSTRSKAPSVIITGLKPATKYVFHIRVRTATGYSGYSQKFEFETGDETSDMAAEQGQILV

T4: human EphA8 extracellular region-SEAP-His protein (human, UniProt P29322 28-542)
T4 construct: extracellular domain; also called hEphA8-SEAP-His
T4 sequence (looked up): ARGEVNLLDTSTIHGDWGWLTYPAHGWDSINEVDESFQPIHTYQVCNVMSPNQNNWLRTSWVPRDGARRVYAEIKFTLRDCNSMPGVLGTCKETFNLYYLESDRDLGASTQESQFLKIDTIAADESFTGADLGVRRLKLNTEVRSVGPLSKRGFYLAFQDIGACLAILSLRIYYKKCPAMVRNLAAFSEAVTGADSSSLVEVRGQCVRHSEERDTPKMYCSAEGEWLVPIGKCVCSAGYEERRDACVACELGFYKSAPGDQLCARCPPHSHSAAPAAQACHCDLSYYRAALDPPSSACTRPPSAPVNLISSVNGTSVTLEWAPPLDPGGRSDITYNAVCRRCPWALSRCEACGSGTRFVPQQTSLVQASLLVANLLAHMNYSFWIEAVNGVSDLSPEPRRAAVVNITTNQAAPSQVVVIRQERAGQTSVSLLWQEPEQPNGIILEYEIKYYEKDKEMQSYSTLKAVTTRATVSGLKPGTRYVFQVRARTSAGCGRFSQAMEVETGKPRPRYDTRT

B1: humanized antibody No. 144 (antibody, human IgG2)
heavy: QVQLVQSGSELKKPGASVKVSCKASGYTFTDYSMHWVRQAPGQGLEWMGWINTETGEPTYADDFKGRFVFSLDTSVSTAYLQISSLKAEDTAVYYCARIPLYYYGSRYWYFDVWGQGTTVTVSSASTKGPSVFPLAPSSRSTSESTAALGCLVKDYFPEPVTVSWNSGALTSGVHTFPAVLQSSGLYSLSSVVTVPSSNFGTQTYTCNVDHKPSNTKVDKTVERKSCVECPPCPAPPAAAPSVFLFPPKPKDTLMISRTPEVTCVVVDVSHEDPEVQFNWYVDGVEVHNAKTKPREEQFNSTFRVVSVLTVVHQDWLNGKEYKCKVSNKGLPAPIEKTISKTKGQPREPQVYTLPPSREEMTKNQVSLTCLVKGFYPSDIAVEWESNGQPENNYKTTPPMLDSDGSFFLYSKLTVDKSRWQQGNVFSCSVMHEALHNHYTQKSLSLSPG
light: DIQMTQSPSSLSASVGDRVTITCRASENIYRNLAWYQQKPGKAPQLLLYAATNLADGVPSRFSGSGSGTDYTLTISSLQPEDFATYYCQHFWGTPWTFGQGTKVEIKRTVAAPSVFIFPPSDEQLKSGTASVVCLLNNFYPREAKVQWKVDNALQSGNSQESVTEQDSKDSTYSLSSTLTLSKADYEKHKVYACEVTHQGLSSPVTKSFNRGEC
notes: human Ig kappa; also called L1-6/HK1
B2: humanized antibody No. 159 (antibody, human IgG2)
heavy: B1 heavy with E46K
light: B1 light
notes: human Ig kappa; also called L1-6/HK2
B3: humanized antibody No. 151 (antibody, human IgG2)
heavy: B1 heavy with V2I, E46K, D62Q, D63G, K65T
light: B1 light with Q45K, P80S
notes: human Ig kappa; also called L1-5/HA4
B4: humanized antibody No. 157 (antibody, human IgG2)
heavy: B1 heavy with D62Q, D63G, K65T
light: B1 light
notes: human Ig kappa; also called L1-6/HA1
B5: humanized antibody No. 154 (antibody, human IgG2)
heavy: B1 heavy
light: B1 light with Q45K, P80S
notes: human Ig kappa; also called L1-5/HK1
B6: humanized antibody No. 145 (antibody, human IgG2)
heavy: B1 heavy with E46K
light: B1 light with Q45K, P80S
notes: human Ig kappa; also called L1-5/HK2
B7: humanized antibody No. 153 (antibody, human IgG2)
heavy: B1 heavy with E46K, D62Q, D63G, K65T
light: B1 light with Q45K, P80S
notes: human Ig kappa; also called L1-5/HA2
B8: humanized antibody No. 156 (antibody, human IgG2)
heavy: B1 heavy with V2I, E46K, D62Q, D63G, K65T
light: B1 light
notes: human Ig kappa; also called L1-6/HA4
B9: humanized antibody No. 158 (antibody, human IgG2)
heavy: B1 heavy with E46K, D62Q, D63G, K65T
light: B1 light
notes: human Ig kappa; also called L1-6/HA2
B10: humanized antibody No. 160 (antibody, human IgG2)
heavy: B1 heavy with V2I, E46K
light: B1 light
notes: human Ig kappa; also called L1-6/HK4
B11: humanized antibody No. 152 (antibody, human IgG2)
heavy: B1 heavy with D62Q, D63G, K65T
light: B1 light with Q45K, P80S
notes: human Ig kappa; also called L1-5/HA1
B12: humanized antibody No. 155 (antibody, human IgG2)
heavy: B1 heavy with V2I, E46K
light: B1 light with Q45K, P80S
notes: human Ig kappa; also called L1-5/HK4

target: T1, human EphA10 extracellular …; assay: ELISA

Compared with B1, B2 is lower in “A450 as % of hEphA4-SEAP-His” value: 5.7% for the first, 5.3% for the second.

Compared with B3, B4 is lower in “A450 as % of hEphA4-SEAP-His” value: 6.6% for the first, 6.1% for the second.

First: B5
Second: B6
The “A450 as % of hEphA4-SEAP-His” value of the first is lower: 5.9% for the first, 6.5% for the second.

Going from B7 to B8, the “A450 as % of hEphA4-SEAP-His” value falls from 6% to 5.3%.

Compared with B9, B10 is lower in “A450 as % of hEphA4-SEAP-His” value: 6.4% for the first, 5% for the second.

Compared with B11, B12 is lower in “A450 as % of hEphA4-SEAP-His” value: 5.8% for the first, 5.4% for the second.

target: T2, human EphB2 extracellular …; assay: ELISA

First: B1
Second: B2
The “A450 as % of hEphA4-SEAP-His” value of the first is higher: 5.7% for the first, 5.4% for the second.

First: B3
Second: B4
The “A450 as % of hEphA4-SEAP-His” value of the first is higher: 7% for the first, 6.2% for the second.

First: B5
Second: B6
The “A450 as % of hEphA4-SEAP-His” value of the first is lower: 6.2% for the first, 6.7% for the second.

First: B7
Second: B8
The “A450 as % of hEphA4-SEAP-His” value of the first is higher: 5.9% for the first, 5.5% for the second.

Going from B9 to B10, the “A450 as % of hEphA4-SEAP-His” value falls from 6.3% to 6.2%.

Compared with B11, B12 is lower in “A450 as % of hEphA4-SEAP-His” value: 5.8% for the first, 5.5% for the second.

target: T3, human EphA6 extracellular …; assay: ELISA

Compared with B1, B2 is lower in “A450 as % of hEphA4-SEAP-His” value: 8.1% for the first, 7.6% for the second.

First: B3
Second: B4
The “A450 as % of hEphA4-SEAP-His” value of the first is higher: 9.9% for the first, 9% for the second.

Compared with B5, B6 is higher in “A450 as % of hEphA4-SEAP-His” value: 8.4% for the first, 8.6% for the second.

Going from B7 to B8, the “A450 as % of hEphA4-SEAP-His” value rises from 8.7% to 8.9%.

First: B9
Second: B10
The “A450 as % of hEphA4-SEAP-His” value of the first is higher: 10% for the first, 8.7% for the second.

Compared with B11, B12 is lower in “A450 as % of hEphA4-SEAP-His” value: 8.3% for the first, 7.2% for the second.

target: T4, human EphA8 extracellular …; assay: ELISA

Compared with B1, B2 is lower in “A450 as % of hEphA4-SEAP-His” value: 5.8% for the first, 5.5% for the second.

Compared with B3, B4 is lower in “A450 as % of hEphA4-SEAP-His” value: 6.9% for the first, 6% for the second.

First: B5
Second: B6
The “A450 as % of hEphA4-SEAP-His” value of the first is lower: 5.5% for the first, 6.6% for the second.

Compared with B7, B8 is lower in “A450 as % of hEphA4-SEAP-His” value: 6.1% for the first, 5.5% for the second.

Compared with B9, B10 is lower in “A450 as % of hEphA4-SEAP-His” value: 6.4% for the first, 5.4% for the second.

Going from B11 to B12, the “A450 as % of hEphA4-SEAP-His” value falls from 6% to 5.5%.

target: T5, human EphA2 extracellular region-SEAP-His protein (human, UniProt P29317 24-537); assay: ELISA
T5 construct: extracellular domain; also called hEphA2-SEAP-His
T5 sequence (P29317 24-537): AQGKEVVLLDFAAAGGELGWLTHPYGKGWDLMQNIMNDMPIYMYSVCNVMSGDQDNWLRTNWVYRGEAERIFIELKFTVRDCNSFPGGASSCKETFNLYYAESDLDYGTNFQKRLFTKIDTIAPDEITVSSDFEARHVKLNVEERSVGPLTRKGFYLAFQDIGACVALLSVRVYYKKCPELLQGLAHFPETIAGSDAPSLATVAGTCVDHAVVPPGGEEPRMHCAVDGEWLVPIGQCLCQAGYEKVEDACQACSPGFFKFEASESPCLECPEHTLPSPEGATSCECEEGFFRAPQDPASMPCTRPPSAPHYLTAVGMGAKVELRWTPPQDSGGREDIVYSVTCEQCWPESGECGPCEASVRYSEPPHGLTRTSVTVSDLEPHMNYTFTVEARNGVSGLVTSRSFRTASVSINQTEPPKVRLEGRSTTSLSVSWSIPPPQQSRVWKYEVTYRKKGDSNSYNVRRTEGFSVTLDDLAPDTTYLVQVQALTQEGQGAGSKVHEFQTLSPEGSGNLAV

Going from B1 to B2, the “A450 as % of hEphA4-SEAP-His” value falls from 5.6% to 5.4%.

First: B3
Second: B4
The “A450 as % of hEphA4-SEAP-His” value of the first is higher: 6.9% for the first, 6.3% for the second.

First: B5
Second: B6
The “A450 as % of hEphA4-SEAP-His” value of the first is lower: 6.2% for the first, 6.5% for the second.

Going from B7 to B8, the “A450 as % of hEphA4-SEAP-His” value falls from 6% to 5.5%.

Compared with B9, B10 is lower in “A450 as % of hEphA4-SEAP-His” value: 6.7% for the first, 6.1% for the second.

Compared with B11, B12 is lower in “A450 as % of hEphA4-SEAP-His” value: 5.8% for the first, 5.5% for the second.
